# US9289506B2, “Surface binding of nanoparticle based drug delivery to tissue” (Massachusetts Institute of Technology, priority 2013, dated 2016)
# Legend:
# [1] = One-way diffusion of solutes into cartilage half disks in transport chamber, confocal microscopy imaging; format: in vitro ADME, bovine; conditions: normal cartilage
# Description: Solute Types: Two types of 15 nm diameter (MW˜300 kDa) Quantum Dots (QD) were used: (i) positively charged, and (ii) charge-neutral; same concentration. Transport of FITC (MW˜300 Da, diam˜0.9 nm) and dextrans (Dex) conjugated with FITC (Sigma Aldrich) of different MW (˜8 kDa, diam˜4.3 nm; ˜40 kDa, diam˜10 nm) were also investigated.
# Transport Studies: A special PMMA transparent transport chamber was designed to allow diffusion of solutes into only one side (superficial zone) of the cartilage disk. The chamber was treated with Casein to block non-specific binding of solutes to chamber surfaces. The equilibrated cartilage disks were then cut into halves and placed in the middle of the ‘slot chambers’ of the fixture. The chamber side facing the superficial zone was filled with ˜45 μl of solute-PBS solution; the other side was filled with 1×PBS alone. […]
# Using a scalpel, a slice (100-200 μm thick) was then cut from the center of each disk (FIG. 1B). […] Appropriate filters were chosen to eliminate auto-fluorescence of cartilage at the settings used for imaging. […] To ensure proper image comparison, solute concentrations were chosen such that the FITC concentration in each solution was identical, thereby giving equal fluorescence intensities.
# [2] = Equilibrium uptake and desorption of Avidin and NeutrAvidin in cartilage disks; format: in vitro ADME, bovine; conditions: for mean uptake ratio: 24 h
# Description: Cartilage disks were harvested from the femoropatellar grooves of 1-2 week old bovine calf knee joints (obtained from Research 87, Hopkinton, Mass.) as described previously (Patwari et al., Arthritis Rheum, 2003). Briefly, cylindrical cartilage disks (3 mm or 6 mm diameter) were cored using a dermal punch and then sliced to obtain the top 1 mm of cartilage with intact superficial zone. Cartilage disks for all treatment groups were matched for depth and location along the joint surface. The disks were then pre-equilibrated in PBS (without Ca^2±/Mg^2±) supplemented with protease inhibitors (Complete Protease Cocktail tablet in 50 mL PBS, Roche Applied Science, IN) in a 37° C., 5% CO2 incubator for 24-48 h.
# Equilibrium uptake of Avidin and NeutrAvidin: 3 mm diameter, 1 mm thick cartilage explants were incubated for specific times in 300 μl of known concentration (3 μM) of FITC-Avidin and FITC-NeutrAvidin, supplemented with protease inhibitors at 37° C. in a 96 well plate format. After removal from the absorption baths, the disks were rinsed, gently wiped and then incubated in 1× or 10×PBS supplemented with protease inhibitors for 24 h or longer as specified. At the end of the experiment, the surfaces of each disk were quickly blotted with Kimwipes and the wet weight was measured. The disks were then lyophilized and the dry weight was measured; the water weight was calculated from the tissue wet and dry weights. The fluorescence signal in the absorption and desorption baths was quantified using a plate reader (1400 Wallace Victor, PerkinElmer, MA); the solute content inside the cartilage disk was determined from the difference between the fluorescence reading of the absorption/desorption baths before and after incubation. […] The solute uptake ratio was calculated as the concentration of the FITC-solute in the cartilage (per intra-tissue water weight) normalized to the concentration of FITC-solute in the equilibration bath.
# [3] = Net charge of Avidin estimated using Donnan equilibrium; format: physicochemical; conditions: assuming uptake entirely due to Donnan partitioning, no binding
# Description: However, it is not certain whether the effective charge sensed during transport and uptake would include all these residues, or whether certain residues may be internal and less accessible to charge-charge interactions within the cartilage extracellular matrix. In addition, the unknown extent of Avidin glycosylation may contribute additional net negative charge that would decrease the total net charge. However, this estimate assumes that all such residues are ionized in aqueous solution and that none of these residues are internal (buried) and thereby inaccessible to charge-charge interactions within the cartilage matrix. Furthermore, this estimate neglects the effects of Avidin glycosylation which could add additional negative charge groups to the total sum. […]
# [formula] (Byun et al., Arch Biochem Biophys, 2010) was measured to be, −0.13 M. Rearranging Eq. (12) gives: […]
# Donnan theory (Grodzinsky et al., New York: Garland Science, 2011) is based on the assumptions that (1) all freely moving charged species (i.e., Avidin and bath ions) will partition into a charged tissue according to Boltzmann statistics and, (2) the net charge in the tissue is zero by electroneutrality (i.e., the sum of the tissue fixed charge density and mobile carrier concentrations). By fitting the Donnan theory to the equilibrium uptake data of FIG. 12A, the effective net charge of Avidin was calculated to be +6.2. […]
# [4] = Net charge of Avidin estimated from reported electrokinetic zeta potential; format: physicochemical; conditions: Grahame equation from zeta potential, spherical shape diameter ~7 nm
# Description: The zeta potential of Avidin molecules in dilute solution of DI water at pH 5 has been reported to be 10 mV (Dougherty et al., Langmuir, 2009). Using Grahame Equation of electrokinetics (Grodzinsky et al., New York: Garland Science, 2011) that related zeta potential to particle surface charge density, and assuming that Avidin attains a spherical shape (diameter ˜7 nm), the zeta potential of 10 mV corresponds to an effective net molecular charge of ˜+7.3.
# [5] = Intra-articular injection of Avidin or Neutravidin in rat knee joints: penetration, uptake and retention in joint tissues; conditions: for mean concentration in articular cartilage: rat, i.a. injection
# Description: Intra-articular (i.a.) injections of 50 μl of 50 μM Avidin (pI 10.5, 66 kDa, diameter ˜7 nm) or Neutravidin (neutral at pH 7, 60 kDa, diameter ˜7 nm) conjugated with Texas Red (both from Invitrogen, CA) were administered in the right knee joints of healthy 18-20 weeks old Fischer-344 rats (Charles River Laboratories). Following the injection, rat knees were flexed and extended to distribute the injected solute throughout the intra-articular space. Contralateral left knees were used as controls. Avidin injected rats were sacrificed at 4 different time points (6 h, 1 d, 4 d, 7 d) and Neutravidin injected rats were sacrificed after 1 day. The following tissue types were extracted from each joint: articular cartilage removed from the patellar groove, femoral condyle and tibial plateau using a scalpel; medial and lateral menisci; i.a. ligaments (ACL & PCL); patellar and quadriceps tendons; and femoral bone. 6 rats were used per treatment condition for a total of 30 rats. Using a digital caliper (Fisher Scientific), the joint thickness was measured before and after the injection at each time point to check for joint swelling indicating an inflammatory response to the injection.
# Tissue samples extracted from the rat joints injected with Avidin-Texas Red (Excitation at 595 nm and emission at 615 nm) and sacrificed at 6 h were imaged using a confocal microscope (OLYMPUS, FluoView FV1000) at 10× magnification by taking Z stacks. Images were taken in X-Y plane, which represents the surface through which Avidin diffused. 3D images were reconstructed using Z stacking (slice thickness˜4.5 μm) and cross-sections in the X-Z plane of these 3D images were taken.
# Tissue samples from all treatment conditions were then desorbed in 10×PBS for 48 h in 37° C. incubator to disrupt electrostatic interactions and release Avidin/Neutravidin into the desorption bath. […] At the end of the experiment, tissue samples were removed from the bath, lyophilized and the dry weight was measured. Fluorescence signal from desorption bath was quantified using a plate reader (Synergy HT, BioTek). […] The solute uptake was calculated as the concentration of labeled solute in the tissue samples normalized by tissue dry weight.
# The half-life of Avidin was calculated by fitting an exponential curve to the experimental data:
# Where, C0 is the initial and C(t) is the final Avidin concentration in tissue after time t and λ is the decay constant.
substance,measurement,setting,value
"Avidin: positively charged globular glycosylated tetrameric protein, pI 10.5, 66 kDa, diameter ~7 nm (Invitrogen); SEQ ID NO 1",time to penetrate the full thickness (1 mm) of the cartilage explant,[1],≤ 24 h
same,percent of absorbed solute diffused out of the cartilage,"[2]; 10×PBS, within 24 h",~69%
same,mean uptake ratio,[2]; 40% GAG-depleted cartilage (chondroitinase-ABC),24
same,higher uptake of Avidin compared to NeutrAvidin,[2]; normal cartilage,greater than 400 times
same,mean uptake ratio,[2]; normal cartilage,~183
same,upper estimate of effective net charge,[3],+13 to +14
same,effective net molecular charge,[4],~+7.3
same,"knee joint inflammation (swelling, stiffness) after i.a. injection","[5]; 6 h, 1 d, 4 d and 7 d",did not present any signs of swelling or joint stiffness
same,concentration in articular cartilage as percent of 24 h value,[5]; 4 days,10.3%
same,concentration in articular cartilage as percent of 24 h value,[5]; 7 days,4.1%
same,Half-life,[5]; Cartilage,29.0 h
same,Half-life,[5]; Ligament,25.7 h
same,Half-life,[5]; Meniscus,21.4 h
same,Half-life,[5]; Patella Tendon,16.9 h
same,Half-life,[5]; Quadriceps Tendon,27.2 h
same,detection in the femoral bone,[5]; any time point,Neither Avidin nor Neutravidin was detected
same,time to diffuse through the full thickness of joint tissues after i.a. injection,"[5]; cartilage, menisci, ligaments, tendons, confocal",≤ 6 h
same,dwell time inside the joint,[5]; rat knee,7 days
same,mean concentration in articular cartilage,[5]; 6 h,4.7 μg/mg tissue dry weight
same,mean concentration in articular cartilage,[5]; 24 h,3.3 µg/mg
same,mean concentration in articular cartilage,[5]; 4 days,0.34 µg/mg
same,mean concentration in articular cartilage,[5]; 7 days,0.13 µg/mg
